First the molecules themselves.
B1: T049M: single-substitution thermolysin variant (SEQ ID NO:3 numbering) (protein, listed as Geobacillus caldoproteolyticus)
chain: ITGTSTVGVGRGVLGDQKNINTTYSTYYYLQDNTRGNGIFTYDAKYRTMLPGSLWADADNQFFASYDAPAVDAHYYAGVTYDYYKNVHNRLSYDGNNAAIRSSVHYSQGYNNAFWNGSQMVYGDGDGQTFIPLSGGIDVVAHELTHAVTDYTAGLIYQNESGAINEAISDIFGTLVEFYANKNPDWEIGEDVYTPGISGDSLRSMSDPAKYGDPDHYSKRYTGTQDNGGVHINSGIINKAAYLISQGGTHYGVSVVGIGRDKLGKIFYRALTQYLTPTSNFSQLRAAAVQSATDLYGSTSQEVASVKQAFDAVGVK
B2: S065I: single-substitution thermolysin variant (SEQ ID NO:3 numbering) (protein, listed as Geobacillus caldoproteolyticus)
chain: ITGTSTVGVGRGVLGDQKNINTTYSTYYYLQDNTRGNGIFTYDAKYRTTLPGSLWADADNQFFAIYDAPAVDAHYYAGVTYDYYKNVHNRLSYDGNNAAIRSSVHYSQGYNNAFWNGSQMVYGDGDGQTFIPLSGGIDVVAHELTHAVTDYTAGLIYQNESGAINEAISDIFGTLVEFYANKNPDWEIGEDVYTPGISGDSLRSMSDPAKYGDPDHYSKRYTGTQDNGGVHINSGIINKAAYLISQGGTHYGVSVVGIGRDKLGKIFYRALTQYLTPTSNFSQLRAAAVQSATDLYGSTSQEVASVKQAFDAVGVK
B3: A058S: single-substitution thermolysin variant (SEQ ID NO:3 numbering) (protein, listed as Geobacillus caldoproteolyticus)
chain: ITGTSTVGVGRGVLGDQKNINTTYSTYYYLQDNTRGNGIFTYDAKYRTTLPGSLWADSDNQFFASYDAPAVDAHYYAGVTYDYYKNVHNRLSYDGNNAAIRSSVHYSQGYNNAFWNGSQMVYGDGDGQTFIPLSGGIDVVAHELTHAVTDYTAGLIYQNESGAINEAISDIFGTLVEFYANKNPDWEIGEDVYTPGISGDSLRSMSDPAKYGDPDHYSKRYTGTQDNGGVHINSGIINKAAYLISQGGTHYGVSVVGIGRDKLGKIFYRALTQYLTPTSNFSQLRAAAVQSATDLYGSTSQEVASVKQAFDAVGVK
B4: I156K: single-substitution thermolysin variant (SEQ ID NO:3 numbering) (protein, listed as Geobacillus caldoproteolyticus)
chain: ITGTSTVGVGRGVLGDQKNINTTYSTYYYLQDNTRGNGIFTYDAKYRTTLPGSLWADADNQFFASYDAPAVDAHYYAGVTYDYYKNVHNRLSYDGNNAAIRSSVHYSQGYNNAFWNGSQMVYGDGDGQTFIPLSGGIDVVAHELTHAVTDYTAGLKYQNESGAINEAISDIFGTLVEFYANKNPDWEIGEDVYTPGISGDSLRSMSDPAKYGDPDHYSKRYTGTQDNGGVHINSGIINKAAYLISQGGTHYGVSVVGIGRDKLGKIFYRALTQYLTPTSNFSQLRAAAVQSATDLYGSTSQEVASVKQAFDAVGVK
B5: A056R: single-substitution thermolysin variant (SEQ ID NO:3 numbering) (protein, listed as Geobacillus caldoproteolyticus)
chain: ITGTSTVGVGRGVLGDQKNINTTYSTYYYLQDNTRGNGIFTYDAKYRTTLPGSLWRDADNQFFASYDAPAVDAHYYAGVTYDYYKNVHNRLSYDGNNAAIRSSVHYSQGYNNAFWNGSQMVYGDGDGQTFIPLSGGIDVVAHELTHAVTDYTAGLIYQNESGAINEAISDIFGTLVEFYANKNPDWEIGEDVYTPGISGDSLRSMSDPAKYGDPDHYSKRYTGTQDNGGVHINSGIINKAAYLISQGGTHYGVSVVGIGRDKLGKIFYRALTQYLTPTSNFSQLRAAAVQSATDLYGSTSQEVASVKQAFDAVGVK
B6: A056Y: single-substitution thermolysin variant (SEQ ID NO:3 numbering) (protein, listed as Geobacillus caldoproteolyticus)
chain: ITGTSTVGVGRGVLGDQKNINTTYSTYYYLQDNTRGNGIFTYDAKYRTTLPGSLWYDADNQFFASYDAPAVDAHYYAGVTYDYYKNVHNRLSYDGNNAAIRSSVHYSQGYNNAFWNGSQMVYGDGDGQTFIPLSGGIDVVAHELTHAVTDYTAGLIYQNESGAINEAISDIFGTLVEFYANKNPDWEIGEDVYTPGISGDSLRSMSDPAKYGDPDHYSKRYTGTQDNGGVHINSGIINKAAYLISQGGTHYGVSVVGIGRDKLGKIFYRALTQYLTPTSNFSQLRAAAVQSATDLYGSTSQEVASVKQAFDAVGVK
B7: I156H: single-substitution thermolysin variant (SEQ ID NO:3 numbering) (protein, listed as Geobacillus caldoproteolyticus)
chain: ITGTSTVGVGRGVLGDQKNINTTYSTYYYLQDNTRGNGIFTYDAKYRTTLPGSLWADADNQFFASYDAPAVDAHYYAGVTYDYYKNVHNRLSYDGNNAAIRSSVHYSQGYNNAFWNGSQMVYGDGDGQTFIPLSGGIDVVAHELTHAVTDYTAGLHYQNESGAINEAISDIFGTLVEFYANKNPDWEIGEDVYTPGISGDSLRSMSDPAKYGDPDHYSKRYTGTQDNGGVHINSGIINKAAYLISQGGTHYGVSVVGIGRDKLGKIFYRALTQYLTPTSNFSQLRAAAVQSATDLYGSTSQEVASVKQAFDAVGVK
B8: G196H: single-substitution thermolysin variant (SEQ ID NO:3 numbering) (protein, listed as Geobacillus caldoproteolyticus)
chain: ITGTSTVGVGRGVLGDQKNINTTYSTYYYLQDNTRGNGIFTYDAKYRTTLPGSLWADADNQFFASYDAPAVDAHYYAGVTYDYYKNVHNRLSYDGNNAAIRSSVHYSQGYNNAFWNGSQMVYGDGDGQTFIPLSGGIDVVAHELTHAVTDYTAGLIYQNESGAINEAISDIFGTLVEFYANKNPDWEIGEDVYTPHISGDSLRSMSDPAKYGDPDHYSKRYTGTQDNGGVHINSGIINKAAYLISQGGTHYGVSVVGIGRDKLGKIFYRALTQYLTPTSNFSQLRAAAVQSATDLYGSTSQEVASVKQAFDAVGVK
B9: G196D: single-substitution thermolysin variant (SEQ ID NO:3 numbering) (protein, listed as Geobacillus caldoproteolyticus)
chain: ITGTSTVGVGRGVLGDQKNINTTYSTYYYLQDNTRGNGIFTYDAKYRTTLPGSLWADADNQFFASYDAPAVDAHYYAGVTYDYYKNVHNRLSYDGNNAAIRSSVHYSQGYNNAFWNGSQMVYGDGDGQTFIPLSGGIDVVAHELTHAVTDYTAGLIYQNESGAINEAISDIFGTLVEFYANKNPDWEIGEDVYTPDISGDSLRSMSDPAKYGDPDHYSKRYTGTQDNGGVHINSGIINKAAYLISQGGTHYGVSVVGIGRDKLGKIFYRALTQYLTPTSNFSQLRAAAVQSATDLYGSTSQEVASVKQAFDAVGVK
B10: S065T: single-substitution thermolysin variant (SEQ ID NO:3 numbering) (protein, listed as Geobacillus caldoproteolyticus)
chain: ITGTSTVGVGRGVLGDQKNINTTYSTYYYLQDNTRGNGIFTYDAKYRTTLPGSLWADADNQFFATYDAPAVDAHYYAGVTYDYYKNVHNRLSYDGNNAAIRSSVHYSQGYNNAFWNGSQMVYGDGDGQTFIPLSGGIDVVAHELTHAVTDYTAGLIYQNESGAINEAISDIFGTLVEFYANKNPDWEIGEDVYTPGISGDSLRSMSDPAKYGDPDHYSKRYTGTQDNGGVHINSGIINKAAYLISQGGTHYGVSVVGIGRDKLGKIFYRALTQYLTPTSNFSQLRAAAVQSATDLYGSTSQEVASVKQAFDAVGVK

The results in this text go back to US9976134B2, “Thermolysin variants” (Danisco US Inc., priority 2007, dated 2018).

The nature of the data set: Stability assay in 25% TIDE 2X detergent with DTPA (residual Abz-AGLA-Nba protease activity). The format is physicochemical. The following applies: 60 min at 32°C; variant residual AGLA activity divided by wild-type residual activity. The protocol:
The stability of thermolysin and variants thereof was measured after incubation under defined conditions in the presence of 25% TIDE® 2× detergent. The initial and residual activity was determined.
MTPs were obtained from Costar (type 9017) and from Greiner (black plate, type 655076). Test Method Unstressed Conditions:
First, 20 μl thermolysin containing culture supernatant was diluted with 180 μl MES assay buffer. Then, 20 μl diluted supernatant was diluted further with 180 μl MES assay buffer. Subsequently 10 μl of this dilution was transferred into 190 μl AGLA-substrate solution in a pre-warmed plate (Greiner 655076) at 25° C. Any air bubbles present were blown away and the plate was measured according to the AGLA protease assay protocol described below.
First, 20 μl of culture supernatant was diluted with 180 μl 27.5% TIDE®+detergent solution and placed in the iEMS shaker. The plate covered with a plate seal was incubated for a total of 60 minutes at 32° C. at 900 rpm. In addition, 20 μl of culture supernatant was diluted with 180 μl 27.5% TIDE®−solution and placed in the iEMS shaker. This plate covered with a plate seal was incubated for a total of 180 minutes at 50° C. at 900 rpm.
Subsequently after the respective incubations, 20 μl of either of these solutions were diluted with 180 μl MES assay buffer and 10 μl of this dilution were diluted with 190 μl AGLA-substrate solution in a pre-warmed plate (Greiner 655076) at 25° C.
Fluorescence measurements were taken at excitation of 350 nm and emission of 420 nm. The spectrofluorometer software calculated the reaction rates (=slope) of the increase in fluorescence for each well to a linearly regressed line of (milli-) RFU/min. The ratio of the residual and initial AGLA activity was used to express the 25% TIDE® 2× stability as follows: Percentage of residual activity=[slope of stressed]*100/[slope of unstressed]
For each sample (thermolysin and variants thereof) the performance index was calculated by dividing the residual activity of the variant by the residual activity of thermolysin. The performance index compared the stability of the variant and the standard thermolysin enzyme (e.g., wild type or parental enzyme), determined under the same conditions.
In these experiments, the liberation of Abz-AG by protease cleavage of Abz-AGLA-Nba was monitored by fluorescence spectrometry (Ex. 350/Em. 420). The rate of appearance of Abz-AG was a measure of proteolytic activity.
The Abz-AGLA-Nba assay solution was prepared by adding 1 ml of the Abz-AGLA-Nba stock to 19 ml MES substrate buffer and mixed well for at least 2 minutes. Subsequently the thermolysin or variants thereof containing culture supernatants were diluted with MES assay buffer to a concentration of 1-6 μg protein per ml.
The assay was performed by adding 10 μl of diluted protease solution to each well, followed by the addition of 190 μl Abz-AGLA-Nba assay solution that was pre-equilibrated for at least 15 minutes at 25° C. The solutions were vigorously mixed, and the liberation of Abz-AG by protease cleavage of Abz-AGLA-Nba was monitored by fluorescence spectrometry at 25° C. in kinetic mode with excitation set at 350 nm and emission set at 420 nm. The rate of appearance of Abz-AG was a measure of proteolytic activity in the samples. The protease activity was expressed as RFU (relative fluorescence units·min^−1).
As described in Example 1, the stability of thermolysin variants was measured by determining the AGLA activity before and after incubation in the presence of TIDE® 2× heavy duty liquid (HDL) detergent at an elevated temperature. The tables contain the relative stability values compared to wild-type thermolysin, which is the quotient of the variant residual activity divided by the wild-type residual activity. A value greater than one indicates higher stability in the presence of detergent. […]
Regarding B1, the “PI (relative stability), 25% TIDE 2X with DTPA” value was 1.02.
The value for B2 was 1.05.
To B3 belongs 1.02.
In the case of B4, the “PI (relative stability), 25% TIDE 2X with DTPA” value came out at 1.07.
To B5 belongs 1.10; to B6, 1.05; to B7, 1.21.
The value for B8 was 1.19; that for B9 was 1.02.
As to B10, the “PI (relative stability), 25% TIDE 2X with DTPA” value was 1.04.
